# Patent publication US20200002414A1 (published 2020)
# Legend:
# human Ror2 [1] = target: T1, human Ror2 (human, UniProt Q01974 34-403, limits assumed); experiment: ELISA, human Ror2, pH 7.4
# T1 construct: also called hROR2; receptor tyrosine kinase-like orphan receptor 2
# human Ror2 [2] = target: T1, human Ror2; experiment: ELISA, human Ror2; ratio of signal at pH 6.0 to pH 7.4
# human Ror2 [3] = target: T1, human Ror2; experiment: ELISA, human Ror2, pH 6.0
# T1 sequence (Q01974 34-403 limits assumed): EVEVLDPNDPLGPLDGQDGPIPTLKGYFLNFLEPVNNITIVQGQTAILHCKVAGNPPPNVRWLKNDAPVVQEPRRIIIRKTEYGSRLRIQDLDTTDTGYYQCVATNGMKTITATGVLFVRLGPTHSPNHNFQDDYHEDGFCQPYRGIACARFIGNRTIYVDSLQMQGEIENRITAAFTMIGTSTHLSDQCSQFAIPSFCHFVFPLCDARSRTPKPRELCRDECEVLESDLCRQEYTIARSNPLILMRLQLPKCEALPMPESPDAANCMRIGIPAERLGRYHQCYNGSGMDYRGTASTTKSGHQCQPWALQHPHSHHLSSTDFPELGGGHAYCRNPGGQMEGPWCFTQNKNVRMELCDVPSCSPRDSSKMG
binder,measurement,setting,value
"HC-R098H (antibody, V domains shown) VH: EVQLQQSGPELVKPGASVKISCKTSGYTFTEYTMHWMKQSHRKSLEWIGGINTNNGGTGYNQKFKGKATLTVDKSSSTAYMELRSLTSEDSAVYFCAHGSLYSYGNSYFDYWGQGTLVTVSS VL: QIVLTQSPAIMSASPGEKVTITCSATSSVSYMHWFQQKPGTSPKLWIYGTSNLASGVPARFSGSGSGTSYSLTISRMEAEDAATYYCQQRSSYPFTFGQGTKVEIK",Affinity ELISA pH 7.4,human Ror2 [1],0.353
same,"ratio, pH 6.0/7.4",human Ror2 [2],2.63
same,Affinity ELISA pH 6.0,human Ror2 [3],0.928
"HC-R098Q (antibody, V domains shown) VH: EVQLQQSGPELVKPGASVKISCKTSGYTFTEYTMHWMKQSHRKSLEWIGGINTNNGGTGYNQKFKGKATLTVDKSSSTAYMELRSLTSEDSAVYFCAQGSLYSYGNSYFDYWGQGTLVTVSS VL: QIVLTQSPAIMSASPGEKVTITCSATSSVSYMHWFQQKPGTSPKLWIYGTSNLASGVPARFSGSGSGTSYSLTISRMEAEDAATYYCQQRSSYPFTFGQGTKVEIK",Affinity ELISA pH 7.4,human Ror2 [1],0.276
same,"ratio, pH 6.0/7.4",human Ror2 [2],2.89
same,Affinity ELISA pH 6.0,human Ror2 [3],0.799
"HC-G099E (antibody, V domains shown) VH: EVQLQQSGPELVKPGASVKISCKTSGYTFTEYTMHWMKQSHRKSLEWIGGINTNNGGTGYNQKFKGKATLTVDKSSSTAYMELRSLTSEDSAVYFCARESLYSYGNSYFDYWGQGTLVTVSS VL: QIVLTQSPAIMSASPGEKVTITCSATSSVSYMHWFQQKPGTSPKLWIYGTSNLASGVPARFSGSGSGTSYSLTISRMEAEDAATYYCQQRSSYPFTFGQGTKVEIK",Affinity ELISA pH 7.4,human Ror2 [1],0.421
same,"ratio, pH 6.0/7.4",human Ror2 [2],1.46
same,Affinity ELISA pH 6.0,human Ror2 [3],0.616
"HC-L101F (antibody, V domains shown) VH: EVQLQQSGPELVKPGASVKISCKTSGYTFTEYTMHWMKQSHRKSLEWIGGINTNNGGTGYNQKFKGKATLTVDKSSSTAYMELRSLTSEDSAVYFCARGSFYSYGNSYFDYWGQGTLVTVSS VL: QIVLTQSPAIMSASPGEKVTITCSATSSVSYMHWFQQKPGTSPKLWIYGTSNLASGVPARFSGSGSGTSYSLTISRMEAEDAATYYCQQRSSYPFTFGQGTKVEIK",Affinity ELISA pH 7.4,human Ror2 [1],1.41
same,"ratio, pH 6.0/7.4",human Ror2 [2],1.46
same,Affinity ELISA pH 6.0,human Ror2 [3],1.46
"HC-S103G (antibody, V domains shown) VH: EVQLQQSGPELVKPGASVKISCKTSGYTFTEYTMHWMKQSHRKSLEWIGGINTNNGGTGYNQKFKGKATLTVDKSSSTAYMELRSLTSEDSAVYFCARGSLYGYGNSYFDYWGQGTLVTVSS VL: QIVLTQSPAIMSASPGEKVTITCSATSSVSYMHWFQQKPGTSPKLWIYGTSNLASGVPARFSGSGSGTSYSLTISRMEAEDAATYYCQQRSSYPFTFGQGTKVEIK",Affinity ELISA pH 7.4,human Ror2 [1],0.655
same,"ratio, pH 6.0/7.4",human Ror2 [2],1.21
same,Affinity ELISA pH 6.0,human Ror2 [3],0.794
"HC-G105D (antibody, V domains shown) VH: EVQLQQSGPELVKPGASVKISCKTSGYTFTEYTMHWMKQSHRKSLEWIGGINTNNGGTGYNQKFKGKATLTVDKSSSTAYMELRSLTSEDSAVYFCARGSLYSYDNSYFDYWGQGTLVTVSS VL: QIVLTQSPAIMSASPGEKVTITCSATSSVSYMHWFQQKPGTSPKLWIYGTSNLASGVPARFSGSGSGTSYSLTISRMEAEDAATYYCQQRSSYPFTFGQGTKVEIK",Affinity ELISA pH 7.4,human Ror2 [1],0.379
same,"ratio, pH 6.0/7.4",human Ror2 [2],1.34
same,Affinity ELISA pH 6.0,human Ror2 [3],0.509
"HC-N106E (antibody, V domains shown) VH: EVQLQQSGPELVKPGASVKISCKTSGYTFTEYTMHWMKQSHRKSLEWIGGINTNNGGTGYNQKFKGKATLTVDKSSSTAYMELRSLTSEDSAVYFCARGSLYSYGESYFDYWGQGTLVTVSS VL: QIVLTQSPAIMSASPGEKVTITCSATSSVSYMHWFQQKPGTSPKLWIYGTSNLASGVPARFSGSGSGTSYSLTISRMEAEDAATYYCQQRSSYPFTFGQGTKVEIK",Affinity ELISA pH 7.4,human Ror2 [1],0.115
same,"ratio, pH 6.0/7.4",human Ror2 [2],1.95
same,Affinity ELISA pH 6.0,human Ror2 [3],0.224
"HC-D110L (antibody, V domains shown) VH: EVQLQQSGPELVKPGASVKISCKTSGYTFTEYTMHWMKQSHRKSLEWIGGINTNNGGTGYNQKFKGKATLTVDKSSSTAYMELRSLTSEDSAVYFCARGSLYSYGNSYFLYWGQGTLVTVSS VL: QIVLTQSPAIMSASPGEKVTITCSATSSVSYMHWFQQKPGTSPKLWIYGTSNLASGVPARFSGSGSGTSYSLTISRMEAEDAATYYCQQRSSYPFTFGQGTKVEIK",Affinity ELISA pH 7.4,human Ror2 [1],1.4
same,"ratio, pH 6.0/7.4",human Ror2 [2],1.68
same,Affinity ELISA pH 6.0,human Ror2 [3],1.68
"HC-Y111C (antibody, V domains shown) VH: EVQLQQSGPELVKPGASVKISCKTSGYTFTEYTMHWMKQSHRKSLEWIGGINTNNGGTGYNQKFKGKATLTVDKSSSTAYMELRSLTSEDSAVYFCARGSLYSYGNSYFDCWGQGTLVTVSS VL: QIVLTQSPAIMSASPGEKVTITCSATSSVSYMHWFQQKPGTSPKLWIYGTSNLASGVPARFSGSGSGTSYSLTISRMEAEDAATYYCQQRSSYPFTFGQGTKVEIK",Affinity ELISA pH 7.4,human Ror2 [1],0.793
same,"ratio, pH 6.0/7.4",human Ror2 [2],1.36
same,Affinity ELISA pH 6.0,human Ror2 [3],1.08
"HC-Y111T (antibody, V domains shown) VH: EVQLQQSGPELVKPGASVKISCKTSGYTFTEYTMHWMKQSHRKSLEWIGGINTNNGGTGYNQKFKGKATLTVDKSSSTAYMELRSLTSEDSAVYFCARGSLYSYGNSYFDTWGQGTLVTVSS VL: QIVLTQSPAIMSASPGEKVTITCSATSSVSYMHWFQQKPGTSPKLWIYGTSNLASGVPARFSGSGSGTSYSLTISRMEAEDAATYYCQQRSSYPFTFGQGTKVEIK",Affinity ELISA pH 7.4,human Ror2 [1],1.4
same,"ratio, pH 6.0/7.4",human Ror2 [2],1.68
same,Affinity ELISA pH 6.0,human Ror2 [3],1.86
"HC-W112L (antibody, V domains shown) VH: EVQLQQSGPELVKPGASVKISCKTSGYTFTEYTMHWMKQSHRKSLEWIGGINTNNGGTGYNQKFKGKATLTVDKSSSTAYMELRSLTSEDSAVYFCARGSLYSYGNSYFDYLGQGTLVTVSS VL: QIVLTQSPAIMSASPGEKVTITCSATSSVSYMHWFQQKPGTSPKLWIYGTSNLASGVPARFSGSGSGTSYSLTISRMEAEDAATYYCQQRSSYPFTFGQGTKVEIK",Affinity ELISA pH 7.4,human Ror2 [1],1.7
same,"ratio, pH 6.0/7.4",human Ror2 [2],1.75
same,Affinity ELISA pH 6.0,human Ror2 [3],1.75
"HC-F029E (antibody, V domains shown) VH: EVQLQQSGPELVKPGASVKISCKTSGYTETEYTMHWMKQSHRKSLEWIGGINTNNGGTGYNQKFKGKATLTVDKSSSTAYMELRSLTSEDSAVYFCARGSLYSYGNSYFDYWGQGTLVTVSS VL: QIVLTQSPAIMSASPGEKVTITCSATSSVSYMHWFQQKPGTSPKLWIYGTSNLASGVPARFSGSGSGTSYSLTISRMEAEDAATYYCQQRSSYPFTFGQGTKVEIK",Affinity ELISA pH 7.4,human Ror2 [1],0.742
same,"ratio, pH 6.0/7.4",human Ror2 [2],1.81
same,Affinity ELISA pH 6.0,human Ror2 [3],1.34
"HC-Y032D (antibody, V domains shown) VH: EVQLQQSGPELVKPGASVKISCKTSGYTFTEDTMHWMKQSHRKSLEWIGGINTNNGGTGYNQKFKGKATLTVDKSSSTAYMELRSLTSEDSAVYFCARGSLYSYGNSYFDYWGQGTLVTVSS VL: QIVLTQSPAIMSASPGEKVTITCSATSSVSYMHWFQQKPGTSPKLWIYGTSNLASGVPARFSGSGSGTSYSLTISRMEAEDAATYYCQQRSSYPFTFGQGTKVEIK",Affinity ELISA pH 7.4,human Ror2 [1],0.51
same,"ratio, pH 6.0/7.4",human Ror2 [2],2.88
same,Affinity ELISA pH 6.0,human Ror2 [3],1.47
"HC-T033C (antibody, V domains shown) VH: EVQLQQSGPELVKPGASVKISCKTSGYTFTEYCMHWMKQSHRKSLEWIGGINTNNGGTGYNQKFKGKATLTVDKSSSTAYMELRSLTSEDSAVYFCARGSLYSYGNSYFDYWGQGTLVTVSS VL: QIVLTQSPAIMSASPGEKVTITCSATSSVSYMHWFQQKPGTSPKLWIYGTSNLASGVPARFSGSGSGTSYSLTISRMEAEDAATYYCQQRSSYPFTFGQGTKVEIK",Affinity ELISA pH 7.4,human Ror2 [1],0.232
same,"ratio, pH 6.0/7.4",human Ror2 [2],2.7
same,Affinity ELISA pH 6.0,human Ror2 [3],0.626
